Experimental findings from US20200048649A1 (CENTRE NATIONAL DE LA RECHERCHE SCIENTIFIQUE, published 2020) are described below.

For experiment [1], the target named is T1, TRCP VLP (virus-like particle of GFLV CP fused at its N-terminus to TagRFP) (Grapevine fanleaf virus isolate F13 (CP …)).
T1 construct: also called TRCP VLPs; VLP-TRCP
As to the kind of experiment: microscale thermophoresis in solution, fluorescent TRCP VLP constant, nanobody titrated, 1:1 model, n=3; SD ±2.91.

The target of experiment [2] is T1, TRCP VLP (virus-like particle of GFLV …). Put plainly: dynamic light scattering; TRCP VLP alone 32.0 nm±2 nm.
The target is the same in experiment [3]. Put plainly: microscale thermophoresis in solution, fluorescent TRCP VLP constant, nanobody titrated, 1:1 model, n=3; SD ±13.63. (Microscale thermophoresis detects binding through changes in fluorescence in a small temperature gradient.)
In experiment [4] the target is T2, Grapevine fanleaf virus (GFLV) isolate F13 particles (capsid made of the coat protein, CP) (Grapevine fanleaf virus isolate F13, UniProt P18474 606-1109).
T2 sequence: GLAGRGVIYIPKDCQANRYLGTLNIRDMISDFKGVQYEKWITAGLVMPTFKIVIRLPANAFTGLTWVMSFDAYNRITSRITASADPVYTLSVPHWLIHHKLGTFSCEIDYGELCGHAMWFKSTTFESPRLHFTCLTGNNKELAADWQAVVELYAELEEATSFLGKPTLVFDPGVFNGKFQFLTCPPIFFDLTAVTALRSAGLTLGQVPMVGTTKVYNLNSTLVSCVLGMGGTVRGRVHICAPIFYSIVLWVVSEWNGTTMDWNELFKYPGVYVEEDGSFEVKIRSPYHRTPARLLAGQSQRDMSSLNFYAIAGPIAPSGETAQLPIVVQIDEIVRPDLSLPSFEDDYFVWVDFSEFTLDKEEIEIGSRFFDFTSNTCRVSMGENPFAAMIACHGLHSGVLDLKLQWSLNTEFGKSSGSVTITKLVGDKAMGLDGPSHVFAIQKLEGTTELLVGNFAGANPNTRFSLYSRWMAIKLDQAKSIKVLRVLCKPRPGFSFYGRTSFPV
Put plainly: competitive ELISA on coated GFLV, legend of FIG. 19a.

The target of experiment [5] is T2, Grapevine fanleaf virus (GFLV) isolate …. As to the kind of experiment: DAS-ELISA on infected leaves, capture Ab Bioreba, detection Nbp75:ALP. (In general: In an ELISA, binding on a coated surface is turned into a signal by an enzyme label.)
For experiment [6] the target is unchanged. As to the kind of experiment: DAS-ELISA on infected leaves, capture by Ab BIOREBA, detection by Nb:ALP.
Experiment [7] deals with T1, TRCP VLP (virus-like particle of GFLV …). Put plainly: microscale thermophoresis in solution, fluorescent TRCP VLP constant, nanobody titrated, 1:1 model, n=3; SD ±3.37.
Experiment [8] deals with T2, Grapevine fanleaf virus (GFLV) isolate ….

B1: Nanobody Nb23 (VHH)
VHH: QVQLQESGGGSVQVGGSLRVACAASGDTFSGYLAAWFRQAPGKGREGVAAINSKRHTTSYADSVKGRFTISKDNADNIMYLEMNSLKPEDTAIYYCAAADAIGLAEYWSTPTLSAARYKYWGQGTQVTVSS
A word on the Kd: it is the concentration at which binding is half-saturated. High values mean weaker binding, low ones tighter binding. The molecule B1 yielded a Kd in experiment [1] of 9.13 nM. Also, the “particle diameter of the VLP saturated with the nanobody (DLS)” value (shortened to “particle diameter of the VLP saturated”) in experiment [2] worked out at 37.8 nm.

B2: Nb23 fused to EGFP (VHH)
VHH: QVQLQESGGGSVQVGGSLRVACAASGDTFSGYLAAWFRQAPGKGREGVAAINSKRHTTSYADSVKGRFTISKDNADNIMYLEMNSLKPEDTAIYYCAAADAIGLAEYWSTPTLSAARYKYWGQGTQVTVSS
As for B2, the “particle diameter of the VLP saturated” value in experiment [2] worked out at 43.8 nm.

B3: Nanobody Nb122 (VHH)
VHH: QVQLQESGGGSVQGGGSLRLSCAVSGYRFSSYAMAWFRQAPGKEREAVAAYYRGFGGAQHSTHYAASVTGRFTITQNDALNTGYLQMNNLKPEDTAMYYCALSTADDDDWHSLRRYNYWGQGTQVTVSS
In turn, B3 had a Kd in experiment [3] of 34.5 nM.

B4: Strep-tagged Nb122 (VHH)
VHH: QVQLQESGGGSVQGGGSLRLSCAVSGYRFSSYAMAWFRQAPGKEREAVAAYYRGFGGAQHSTHYAASVTGRFTITQNDALNTGYLQMNNLKPEDTAMYYCALSTADDDDWHSLRRYNYWGQGTQVTVSS
As for B4, the binding result in experiment [4] is listed as “binds”.

B5: Strep-tagged Nbp75 (VHH)
VHH: QVQLQESGGGSVQAGGSLRLSCVASEYPSSSTAMAWFRQAPGKEREGVAAINSVRHTTSYADSVKGRFTISKDNADNMMYLEMNSLKPEDTAIYYCAAADAIGLAEYWSTPTLSAARYKYWGQGTQVTVSS
On to B5, for which the binding result in experiment [4] is given as “binds”.

B6: Nbp75 fused to alkaline phosphatase (VHH)
VHH: QVQLQESGGGSVQAGGSLRLSCVASEYPSSSTAMAWFRQAPGKEREGVAAINSVRHTTSYADSVKGRFTISKDNADNMMYLEMNSLKPEDTAIYYCAAADAIGLAEYWSTPTLSAARYKYWGQGTQVTVSS
Consider B6, for which the binding result in experiment [5] is given as “binds”.

B7: Nbp59 fused to alkaline phosphatase (VHH)
VHH: QVQLQESGGGTVQAGGSLRLSCSISGDTSNSYCMGWFRQAPGKEREVVAHISTGVISPGYNKFSEGRFTISPDNAKNSVYLQMNNLKPDDTAMYYCAARTGYCSGSWGVADSFNGWGQGTQVTVSS
Turning to B7, the binding result in experiment [6] is given as “binds”.

B8: Strep-tagged Nbp59 (VHH)
VHH: QVQLQESGGGTVQAGGSLRLSCSISGDTSNSYCMGWFRQAPGKEREVVAHISTGVISPGYNKFSEGRFTISPDNAKNSVYLQMNNLKPDDTAMYYCAARTGYCSGSWGVADSFNGWGQGTQVTVSS
B8: the binding result in experiment [4] is “binds”.

B9: Nanobody Nbp59 (VHH)
VHH: QVQLQESGGGTVQAGGSLRLSCSISGDTSNSYCMGWFRQAPGKEREVVAHISTGVISPGYNKFSEGRFTISPDNAKNSVYLQMNNLKPDDTAMYYCAARTGYCSGSWGVADSFNGWGQGTQVTVSS
B9 registered a Kd in experiment [7] of 12.6 nM.

B10: Nb122 fused to alkaline phosphatase (VHH)
chain: MAQVQLQESGGGSVQGGGSLRLSCAVSGYRFSSYAMAWFRQAPGKEREAVAAYYRGFGGAQHSTHYAASVTGRFTITQNDALNTGYLQMNNLKPEDTAMYYCALSTADDDDWHSLRRYNYWGQGTQVTVSSGGGSGGGVKQSTIALALLPLLFTPVTKARTPEMPLQTQATSREEPPRLPSKHRPGVKTQATSREEPPRLPSKHRPGVKTQATSREEPPRLPSKHRPGVKTQATSREEPPRLPSKHRPGVKTQATSLEVLENRAAQGDITAPGGARRLTGDQTAALRDSLSDKPAKNIILLIGDGMGDSEITAARNYAEGAGGFFKGIDALPLTGQYTHYALNKKTGKPDYVTDSAASATAWSTGVKTYNGALGVDIHEKDHPTILEMAKAAGLATGNVSTAELQDATPAALVAHVTSRKCYGPSATSEKCPGNALEKGGKGSITEQLLNARADVTLGGGAKTFAETATAGEWQGKTLREQAQARGYQLVSDAASLNSVTEANQQKPLLGLFADGNMPVRWLGPKATYHGNIDKPAVTCTPNPQRNDSVPTLAQMTDKAIELLSKNEKGFFLQVEGASIDKQDHAANPCGQIGETVDLDEAVQRALEFAKKEGNTLVIVTADHAHASQIVAPDTKAPGLTQALNTKDGAVMVMSYGNSEEDSQEHTGSQLRIAAYGPHAAHHHHHH
A word on the EC50 (read off the curve): it is the concentration at which the effect is half-maximal. A higher EC50 (read off the curve) goes with weaker potency. As to B10, the “EC50 (read off the curve)” value in experiment [8] was about 10000 nM.

B11: Strep-tagged Nb125 (VHH)
VHH: QVQLQESGGGSVQAGGSLRLSCAASGYTYSMYCMAWFRQAPGKEREGVAAINSGNRSTYYADSVKGRFTISQDNAKNTVYLIMNSLKPEDTAIYYCAADPQRCGSWTWANMYEYNYWGQGTQVTVSS
On to B11, for which the binding result in experiment [4] was “binds”.

B12: Nb23 fused to bacterial alkaline phosphatase (VHH)
chain: QVQLQESGGGSVQVGGSLRVACAASGDTFSGYLAAWFRQAPGKGREGVAAINSKRHTTSYADSVKGRFTISKDNADNIMYLEMNSLKPEDTAIYYCAAADAIGLAEYWSTPTLSAARYKYWGQGTQVTVSSGGGSGGGVKQSTIALALLPLLFTPVTKARTPEMPLQTQATSREEPPRLPSKHRPGVKTQATSREEPPRLPSKHRPGVKTQATSREEPPRLPSKHRPGVKTQATSREEPPRLPSKHRPGVKTQATSLEVLENRAAQGDITAPGGARRLTGDQTAALRDSLSDKPAKNIILLIGDGMGDSEITAARNYAEGAGGFFKGIDALPLTGQYTHYALNKKTGKPDYVTDSAASATAWSTGVKTYNGALGVDIHEKDHPTILEMAKAAGLATGNVSTAELQDATPAALVAHVTSRKCYGPSATSEKCPGNALEKGGKGSITEQLLNARADVTLGGGAKTFAETATAGEWQGKTLREQAQARGYQLVSDAASLNSVTEANQQKPLLGLFADGNMPVRWLGPKATYHGNIDKPAVTCTPNPQRNDSVPTLAQMTDKAIELLSKNEKGFFLQVEGASIDKQDHAANPCGQIGETVDLDEAVQRALEFAKKEGNTLVIVTADHAHASQIVAPDTKAPGLTQALNTKDGAVMVMSYGNSEEDSQEHTGSQLRIAAYGPHAAHHHHHH
Regarding B12, the “particle diameter of the VLP saturated” value in experiment [2] is 40 nm.
